Measurements as given in US20230272028.

Sequence of ALU30-5 (chain, as listed by the source): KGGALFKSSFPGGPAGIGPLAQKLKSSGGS
Sequence of MMP-9, recombinant human (chain, as listed by the source): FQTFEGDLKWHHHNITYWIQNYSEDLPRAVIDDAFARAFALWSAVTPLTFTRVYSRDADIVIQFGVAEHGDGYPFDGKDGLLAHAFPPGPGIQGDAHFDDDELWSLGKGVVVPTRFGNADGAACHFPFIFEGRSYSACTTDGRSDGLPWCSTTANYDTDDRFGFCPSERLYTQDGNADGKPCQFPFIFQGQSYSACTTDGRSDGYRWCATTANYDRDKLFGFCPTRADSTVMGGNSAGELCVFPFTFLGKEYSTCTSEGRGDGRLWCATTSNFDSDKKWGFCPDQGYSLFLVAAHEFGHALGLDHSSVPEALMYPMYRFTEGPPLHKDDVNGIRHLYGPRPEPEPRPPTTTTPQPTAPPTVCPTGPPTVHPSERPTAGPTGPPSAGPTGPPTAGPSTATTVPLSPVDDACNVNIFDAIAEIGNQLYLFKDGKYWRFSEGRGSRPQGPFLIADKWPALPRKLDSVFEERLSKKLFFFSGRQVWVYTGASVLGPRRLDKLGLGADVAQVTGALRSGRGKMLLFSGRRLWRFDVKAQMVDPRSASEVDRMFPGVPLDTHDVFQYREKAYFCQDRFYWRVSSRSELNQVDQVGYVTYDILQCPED
Sequence of ALU30-14 (chain, as listed by the source): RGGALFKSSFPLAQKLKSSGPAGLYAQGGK
Sequence of ALU30-1 (chain, as listed by the source): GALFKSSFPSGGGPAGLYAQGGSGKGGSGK
Sequence of ALU30-9 (chain, as listed by the source): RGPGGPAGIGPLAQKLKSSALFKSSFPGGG
Sequence of ALU30-7 (chain, as listed by the source): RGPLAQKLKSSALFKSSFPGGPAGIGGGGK
Sequence of ALU30-8 (chain, as listed by the source): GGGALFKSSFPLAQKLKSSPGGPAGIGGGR
Sequence of ALU30-13 (chain, as listed by the source): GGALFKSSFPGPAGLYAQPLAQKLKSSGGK
Sequence of ALU30-10 (chain, as listed by the source): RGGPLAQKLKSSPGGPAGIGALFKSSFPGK
Sequence of ALU30-2 (chain, as listed by the source): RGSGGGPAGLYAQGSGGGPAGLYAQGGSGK
Sequence of ALU30-6 (chain, as listed by the source): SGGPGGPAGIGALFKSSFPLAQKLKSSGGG
Sequence of ALU30-19 (chain, as listed by the source): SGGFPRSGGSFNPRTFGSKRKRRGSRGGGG
Sequence of ALU30-12 (chain, as listed by the source): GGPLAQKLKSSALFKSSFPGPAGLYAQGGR
Sequence of ALU30-15 (chain, as listed by the source): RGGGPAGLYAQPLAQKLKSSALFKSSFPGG
Sequence of ALU30-16 (chain, as listed by the source): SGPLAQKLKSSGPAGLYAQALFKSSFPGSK
Sequence of Factor Xa, recombinant human (chain): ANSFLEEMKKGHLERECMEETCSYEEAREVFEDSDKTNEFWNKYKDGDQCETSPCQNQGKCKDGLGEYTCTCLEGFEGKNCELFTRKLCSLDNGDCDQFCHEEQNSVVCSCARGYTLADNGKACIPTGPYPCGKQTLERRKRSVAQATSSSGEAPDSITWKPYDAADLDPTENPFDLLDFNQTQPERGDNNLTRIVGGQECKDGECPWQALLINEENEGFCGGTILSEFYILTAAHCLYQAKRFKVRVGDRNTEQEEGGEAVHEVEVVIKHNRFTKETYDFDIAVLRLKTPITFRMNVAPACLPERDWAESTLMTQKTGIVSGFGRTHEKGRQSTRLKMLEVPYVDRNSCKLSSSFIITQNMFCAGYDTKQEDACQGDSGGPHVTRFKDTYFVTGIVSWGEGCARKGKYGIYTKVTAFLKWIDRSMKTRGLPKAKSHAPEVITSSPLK
Sequence of hepsin, recombinant human (chain, as listed by the source): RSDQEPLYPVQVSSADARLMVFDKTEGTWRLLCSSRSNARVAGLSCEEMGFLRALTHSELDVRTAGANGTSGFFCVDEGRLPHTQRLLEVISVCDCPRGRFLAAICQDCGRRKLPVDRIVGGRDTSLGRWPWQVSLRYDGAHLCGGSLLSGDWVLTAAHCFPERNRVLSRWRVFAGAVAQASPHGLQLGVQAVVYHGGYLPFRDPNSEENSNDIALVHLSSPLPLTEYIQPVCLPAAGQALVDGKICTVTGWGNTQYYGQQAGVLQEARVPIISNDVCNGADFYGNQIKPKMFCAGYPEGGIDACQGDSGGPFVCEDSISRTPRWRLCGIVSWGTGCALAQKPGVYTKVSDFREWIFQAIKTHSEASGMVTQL
Sequence of ALU30-18 (chain, as listed by the source): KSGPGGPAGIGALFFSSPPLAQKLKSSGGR
Sequence of ALU30-11 (chain, as listed by the source): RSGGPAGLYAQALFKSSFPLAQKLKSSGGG
Sequence of ALU30-17 (chain, as listed by the source): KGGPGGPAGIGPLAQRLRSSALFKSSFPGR
Sequence of ALU30-4 (chain, as listed by the source): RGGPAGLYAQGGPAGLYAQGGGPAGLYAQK
Sequence of ALU30-3 (chain, as listed by the source): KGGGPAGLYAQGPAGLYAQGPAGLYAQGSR

Substance	30-mer peptide degradation by recombinant enzyme (MSP-MS) (ALU30-1)	30-mer peptide degradation by recombinant enzyme (MSP-MS) (ALU30-18)	30-mer peptide degradation by recombinant enzyme (MSP-MS) (ALU30-5)	30-mer peptide degradation by recombinant enzyme (MSP-MS) (ALU30-12)	30-mer peptide degradation by recombinant enzyme (MSP-MS) (ALU30-19)	30-mer peptide degradation by recombinant enzyme (MSP-MS) (ALU30-8)	30-mer peptide degradation by recombinant enzyme (MSP-MS) (ALU30-16)	comparison of cleavage efficiencies across the 30-mer library (ALU30-16)	30-mer peptide degradation by recombinant enzyme (MSP-MS) (ALU30-15)	30-mer peptide degradation by recombinant enzyme (MSP-MS) (ALU30-10)	30-mer peptide degradation by recombinant enzyme (MSP-MS) (ALU30-6)	30-mer peptide degradation by recombinant enzyme (MSP-MS) (ALU30-13)	30-mer peptide degradation by recombinant enzyme (MSP-MS) (ALU30-7)	30-mer peptide degradation by recombinant enzyme (MSP-MS) (ALU30-11)	30-mer peptide degradation by recombinant enzyme (MSP-MS) (ALU30-14)	30-mer peptide degradation by recombinant enzyme (MSP-MS) (ALU30-17)	30-mer peptide degradation by recombinant enzyme (MSP-MS) (ALU30-9)	30-mer peptide degradation by recombinant enzyme (MSP-MS) (ALU30-2)	30-mer peptide degradation by recombinant enzyme (MSP-MS) (ALU30-4)	30-mer peptide degradation by recombinant enzyme (MSP-MS) (ALU30-3)	further results
Factor Xa, recombinant human	all other peptides bearing a CTSL1_1 motif were cleaved by Factor Xa at either ALF|KSSFP (SEQ ID NO: 198) or ALFKS|SFP (SEQ ID NO: 198)	The peptide with the motif CTSL1_2 was cleaved at the lowest efficiency	the only library peptide with significant cleavage was Alu30-5, cleaved at the CTSL1_1 motif ALFKS|SFP (SEQ ID NO: 198), upstream of a FAPa_1 motif	all other peptides bearing a CTSL1_1 motif were cleaved by Factor Xa at either ALF|KSSFP (SEQ ID NO: 198) or ALFKS|SFP (SEQ ID NO: 198)	Peptide Alu30-19 with this motif was completely degraded before the 5 min time point	all other peptides bearing a CTSL1_1 motif were cleaved by Factor Xa at either ALF|KSSFP (SEQ ID NO: 198) or ALFKS|SFP (SEQ ID NO: 198)	all other peptides bearing a CTSL1_1 motif were cleaved by Factor Xa at either ALF|KSSFP (SEQ ID NO: 198) or ALFKS|SFP (SEQ ID NO: 198)	the lowest susceptibility to thrombin, Factor Xa, and hepsin	all other peptides bearing a CTSL1_1 motif were cleaved by Factor Xa at either ALF|KSSFP (SEQ ID NO: 198) or ALFKS|SFP (SEQ ID NO: 198)	all other peptides bearing a CTSL1_1 motif were cleaved by Factor Xa at either ALF|KSSFP (SEQ ID NO: 198) or ALFKS|SFP (SEQ ID NO: 198)	all other peptides bearing a CTSL1_1 motif were cleaved by Factor Xa at either ALF|KSSFP (SEQ ID NO: 198) or ALFKS|SFP (SEQ ID NO: 198)	all other peptides bearing a CTSL1_1 motif were cleaved by Factor Xa at either ALF|KSSFP (SEQ ID NO: 198) or ALFKS|SFP (SEQ ID NO: 198)	all other peptides bearing a CTSL1_1 motif were cleaved by Factor Xa at either ALF|KSSFP (SEQ ID NO: 198) or ALFKS|SFP (SEQ ID NO: 198)	all other peptides bearing a CTSL1_1 motif were cleaved by Factor Xa at either ALF|KSSFP (SEQ ID NO: 198) or ALFKS|SFP (SEQ ID NO: 198)	all other peptides bearing a CTSL1_1 motif were cleaved by Factor Xa at either ALF|KSSFP (SEQ ID NO: 198) or ALFKS|SFP (SEQ ID NO: 198)	all other peptides bearing a CTSL1_1 motif were cleaved by Factor Xa at either ALF|KSSFP (SEQ ID NO: 198) or ALFKS|SFP (SEQ ID NO: 198)	all other peptides bearing a CTSL1_1 motif were cleaved by Factor Xa at either ALF|KSSFP (SEQ ID NO: 198) or ALFKS|SFP (SEQ ID NO: 198)				
MMP-9, recombinant human	The single or double MMP14_1 motif-bearing peptides were next in the order		The FAPa_1 motif was not cleaved by MMP9, however, when followed either by the ADAM17_2 motif or the spacing residues GG	The slowest peptides bear the MMP14_1 motif near the C-terminus of the 30-mer peptide		The FAPa_1 motif was not cleaved by MMP9, however, when followed either by the ADAM17_2 motif or the spacing residues GG			The next most efficient substrates contained the pair of motifs where MMP14_1 was followed directly by ADAM17_2	the FAPa_1 motif was also cleaved within the peptides bearing FAPa_1 directly followed by the CTSL1_1 motif at PGGPAG|IGALF (SEQ ID NO: 247); these were lower efficiency cleavages	the FAPa_1 motif was also cleaved within the peptides bearing FAPa_1 directly followed by the CTSL1_1 motif at PGGPAG|IGALF (SEQ ID NO: 247); these were lower efficiency cleavages	The next most efficient substrates contained the pair of motifs where MMP14_1 was followed directly by ADAM17_2	The FAPa_1 motif was not cleaved by MMP9, however, when followed either by the ADAM17_2 motif or the spacing residues GG		The slowest peptides bear the MMP14_1 motif near the C-terminus of the 30-mer peptide		The FAPa_1 motif was not cleaved by MMP9, however, when followed either by the ADAM17_2 motif or the spacing residues GG	The single or double MMP14_1 motif-bearing peptides were next in the order	The most efficient MMP9 substrates were those that bore three-repeats of the MMP14_1 motif	The most efficient MMP9 substrates were those that bore three-repeats of the MMP14_1 motif	product formation at single bonds (MSP-MS) (ALU30-2): the specific cleavage of the Alu30-2 peptide was more efficient than the Alu30-1 peptide; product formation at single bonds (MSP-MS) (ALU30-1): the specific cleavage of the Alu30-2 peptide was more efficient than the Alu30-1 peptide
hepsin, recombinant human					Alu30-19 was cleaved at all three motifs within the first 15 min of the reaction			the lowest susceptibility to thrombin, Factor Xa, and hepsin													apparent catalytic efficiency (kcat/KM) (ALU30-12): The authentic peptide Alu30-19, as well as the top cleaved peptides Alu30-8,-9, -12, and -14 all had apparent catalytic efficiencies on the same order of 105; apparent catalytic efficiency (kcat/KM) (ALU30-19): The authentic peptide Alu30-19, as well as the top cleaved peptides Alu30-8,-9, -12, and -14 all had apparent catalytic efficiencies on the same order of 105; apparent catalytic efficiency (kcat/KM) (ALU30-8): The authentic peptide Alu30-19, as well as the top cleaved peptides Alu30-8,-9, -12, and -14 all had apparent catalytic efficiencies on the same order of 105; comparison of cleavage efficiencies across the 30-mer library (ALU30-15): it had slightly higher hepsin susceptibility and lower CTSL1 activity; apparent catalytic efficiency (kcat/KM) (ALU30-14): The authentic peptide Alu30-19, as well as the top cleaved peptides Alu30-8,-9, -12, and -14 all had apparent catalytic efficiencies on the same order of 105; apparent catalytic efficiency (kcat/KM) (ALU30-9): The authentic peptide Alu30-19, as well as the top cleaved peptides Alu30-8,-9, -12, and -14 all had apparent catalytic efficiencies on the same order of 105
thrombin, recombinant human	The peptides Alu30-1 and Alu30-3 were the most rapidly cleaved in the library	the CTSL1_2 motif had lower cleavage activity than did the CTSL1_1 motif (peptides Alu30-18 vs Alu30-6)	Thrombin showed higher activity than Factor Xa, and it cleaved each of the 30-mer peptides	the peptides Alu30-12, Alu30-13 and Alu30-15, with MMP141 motifs in combination with ADAM17_2 and CTSL1_1, were cleaved at lower efficiency by thrombin	Thrombin showed higher activity than Factor Xa, and it cleaved each of the 30-mer peptides	Thrombin showed higher activity than Factor Xa, and it cleaved each of the 30-mer peptides	Thrombin showed higher activity than Factor Xa, and it cleaved each of the 30-mer peptides	the lowest susceptibility to thrombin, Factor Xa, and hepsin	the peptides Alu30-12, Alu30-13 and Alu30-15, with MMP141 motifs in combination with ADAM17_2 and CTSL1_1, were cleaved at lower efficiency by thrombin	Thrombin showed higher activity than Factor Xa, and it cleaved each of the 30-mer peptides	the CTSL1_2 motif had lower cleavage activity than did the CTSL1_1 motif (peptides Alu30-18 vs Alu30-6)	the peptides Alu30-12, Alu30-13 and Alu30-15, with MMP141 motifs in combination with ADAM17_2 and CTSL1_1, were cleaved at lower efficiency by thrombin	Thrombin showed higher activity than Factor Xa, and it cleaved each of the 30-mer peptides	Thrombin showed higher activity than Factor Xa, and it cleaved each of the 30-mer peptides	Thrombin showed higher activity than Factor Xa, and it cleaved each of the 30-mer peptides	The two alternate ADAM17 motifs were cleaved with similar efficiency (peptides Alu30-17 vs Alu30-9)	The two alternate ADAM17 motifs were cleaved with similar efficiency (peptides Alu30-17 vs Alu30-9)	The peptide Alu30-2, bearing two MMP14_1 motifs, was less susceptible to thrombin	Alu30-4 was also an efficient substrate	The peptides Alu30-1 and Alu30-3 were the most rapidly cleaved in the library	
